Measured values as given in patent publication US20120009123A1, “Albumin binding peptide-mediated disease targeting” (ABRAXIS BIOSCIENCE, LLC, priority 2008, published 2012).
Values after ≈ are worked out from the molar mass of the structure shown. Blank lines part the entries; values can stand above or below the molecule they belong to.

Legend:
[1] = biological target: binding of albumin to SPARC (Homo sapiens, UniProt P02768); assay: competitive binding assays with SPARC C-terminal cysteine-poor domain peptides; details: general statement in the description
Procedure: The 15 mer SPARC C-terminal, cysteine-poor domain-spanning peptides were used in competitive binding assays. Specifically, the SPARC peptides were immobilized onto PVDF-attached 96 well plate in an overnight incubation at 4° C. (5 μg/well). The next day the plate was washed with DPBS and blocked for an hour with 5% Non-fat dry milk in DPBS. Next, 100 μl of DPBS was added to each well except the wells in first row. A vial of Alexa 488-BSA (5 mg) was dissolved with 1.2 ml of 25% HSA. Then, 100 μl of BSA-HSA was mixed with 100 μl of SPARC peptides prepared as 4 mg/ml in DPBS (resulting in a final concentration of the Alexa 488-BSA and peptides in first row of about 200 ug/well each). Serial dilution was made down to each column. The plate was incubated for an hour in a dark place, was washed, and the fluorescence was read. […] To further localize the SPARC albumin binding site SPARC sub-fragments were made (FIG. 8). In particular, peptides #103 ([…]) (SEQ ID NO: 66) and #104 ([…]) are subfragments of the sole active peptide, peptide #47.

[2] = biological target: human serum albumin (HSA) (Homo sapiens, UniProt P02768); assay: peptide phage display library screening (panning); format: binding; details: for assessment of sequence after fourth round of panning: about 100 plaques sequenced, FIG. 11
Procedure: A commercial peptide phage display library (12-mer peptides in M13) was screened for peptides which bind to human serum albumin (HSA) (see FIG. 10). Four rounds of panning were completed as follows:
1. The phage library was screened by coating a 100 ug/ml HSA solution onto the wells of 12-well plate and exposing the wells to 1-2×1011 pfu phage. Bound phage were eluted with a 0.2M Glycine, pH2.2 buffer to yield 15×10^5 pfu/ml (which became 5×1013 pfu/ml after amplification);
2. The second panning was eluted with a 0.2M Glycine, pH 2.2 buffer to yield 12×10^6 pfu/ml (8×1013 pfu/ml after amplification);
3. The third panning was eluted with 250 ug/ml HSA for 1 hr to yield 5×10^5 pfu/ml (2×1012 pfu/ml after amplification); and
4. a fourth panning was eluted with a 0.2M Glycine, pH2.2 buffer to yield 14×10^8 pfu/ml. After the fourth round of panning, about 100 plaques were selected, amplified and sequenced.

[3] = test system: squamous cervix (A431) line; assay: cells; details: Homo sapiens, A-431, read-out: IC50, in vitro cytotoxicity
[4] = test system: human serum albumin spiked with Alexa fluor 488 conjugated bovine serum albumin; assay: SPARC-albumin interaction: SPARC immobilized on PVDF, fluorescent albumin binding; details: for albumin binding: polypeptide immobilized 5 μg/well on PVDF, FIG. 2
Procedure: Full length, wild-type SPARC (“WT”), a SPARC deletion mutant in which the glutamine at residue 3 is deleted (“Q3”) or SPARC treated with Cathepsin K were immobilized on PVDF membrane and exposed to decreasing concentrations of human serum albumin spiked with Alexa fluor 488 conjugated bovine serum albumin.
In the initial experiment, full length, wild-type SPARC and “Q3” mutant SPARC polypeptides were immobilized onto PVDF-attached 96 well plate by overnight at 4° C. incubation (5 μg/well). The next day the plate was washed with DPBS and blocked for an hour with 5% non-fat dry milk in DPBS. 100 μl of DPBS was added to each well. A vial of Alexa 488-BSA (5 mg) was dissolved with 1.2 ml of 25% Human Serum Albumin (“HSA”) and 100 μl of BSA-HSA mix was added to wells of first row of plate (resulting in a final concentration of Alexa 488-BSA in first row becomes about 200 μg/well). Serial dilutions were made down each column and the plate was incubated for an hour in a dark place. After 1 hr incubation, the membrane was washed with PBS and the amount of albumin remained quantified by fluorescent plate reader.
Thirty μg of recombinant human (“rh”) SPARC was incubated with 0.4 μg of Cathepsin K for 10, 30, 60 and 120 minutes. […] Accordingly, overlapping 15 mer peptides were prepared which spanned the SPARC C-terminal, cysteine-poor domain (FIG. 6).

albumin binding to SPARC = biological target: T1, albumin binding to SPARC (Homo sapiens, UniProt P09486); assay: follow-up competitive studies of albumin binding to SPARC
T1 construct: Full length, wild-type SPARC (“WT”)
T1 sequence (P09486 18-303): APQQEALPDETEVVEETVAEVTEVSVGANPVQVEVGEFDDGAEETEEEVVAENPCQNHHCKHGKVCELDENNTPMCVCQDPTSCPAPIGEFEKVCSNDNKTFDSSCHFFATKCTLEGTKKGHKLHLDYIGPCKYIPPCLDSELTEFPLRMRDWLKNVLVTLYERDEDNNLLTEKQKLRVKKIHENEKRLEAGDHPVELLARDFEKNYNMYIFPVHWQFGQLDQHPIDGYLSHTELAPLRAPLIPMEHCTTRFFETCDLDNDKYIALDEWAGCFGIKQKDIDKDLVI

human serum albumin = biological target: T2, human serum albumin (human, UniProt P02768 25-609); assay: M13 12-mer phage display, four rounds of panning on coated HSA, sequencing of about 100 plaques
T2 construct: also called HSA; human albumin

binding to human albumin [1]: binds human albumin with great avidity
Molecule: MYIFPVHWQFGQLDQ [peptide #47, 15 mer, amino acids 209-223 of the human SPARC protein]

assessment of sequence after fourth round of panning [2]: nonspecific binding
Molecule: WPHHHHTRLSTV

assessment of sequence after fourth round of panning [2]: probably be a true ligand | binding to human albumin ([2]; general statement in the description): binds human albumin with great avidity
Molecule: KNHGATRTTRAS [SEQ ID NO: 2, called Peptide 47 in b190]

Molecule: CC(=O)O[C@H]1C(=O)[C@@]2(C)[C@H]([C@H](OC(=O)c3ccccc3)[C@]3(O)C[C@H](OC(=O)[C@H](O)[C@@H](NC(=O)c4ccccc4)c4ccccc4)C(C)=C1C3(C)C)[C@]1(OC(C)=O)CO[C@@H]1C[C@@H]2O [TAX]
IC50 [3]: 0.012 µg/mL (≈ 0.0141 µM)

albumin binding [4]: bind albumin
B1: Q3: SPARC deletion mutant in which the glutamine at residue 3 is deleted (protein)
chain: APQEALPDETEVVEETVAEVTEVSVGANPVQVEVGEFDDGAEETEEEVVAENPCQNHHCKHGKVCELDENNTPMCVCQDPTSCPAPIGEFEKVCSNDNKTFDSSCHFFATKCTLEGTKKGHKLHLDYIGPCKYIPPCLDSELTEFPLRMRDWLKNVLVTLYERDEDNNLLTEKQKLRVKKIHENEKRLEAGDHPVELLARDFEKNYNMYIFPVHWQFGQLDQHPIDGYLSHTELAPLRAPLIPMEHCTTRFFETCDLDNDKYIALDEWAGCFGIKQKDIDKDLVI

IC50 of albumin binding to SPARC (albumin binding to SPARC): 5% | albumin binding after cathepsin K digest ([4]; cathepsin K digest 60 min, FIG. 5): obliterated | albumin binding [4]: bind albumin
B2: SPARC: Secreted Protein, Acidic, Rich in Cysteines; full length, wild-type, 303 amino acid glycoprotein (protein)
chain: T1 sequence (P09486 18-303)

binding result (human serum albumin): binds
B3: KNHGATRTTRAS (Peptide 47; SEQ ID NO: 2) (peptide)
peptide: KNHGATRTTRAS
